Data from publication PMC10392684, “Amyloid-like Hfq interaction with single-stranded DNA: involvement in recombination and replication in Escherichia coli”.

T1: Hfq-CTR peptide (Escherichia coli, UniProt P0A6X3 64-102)
T1 chain: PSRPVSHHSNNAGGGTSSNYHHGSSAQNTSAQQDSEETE

B1: dA7 (ssDNA)
DNA: AAAAAAA
B2: dA20 (ssDNA)
DNA: AAAAAAAAAAAAAAAAAAAA
B3: dA59 (ssDNA)
DNA: AAAAAAAAAAAAAAAAAAAAAAAAAAAAAAAAAAAAAAAAAAAAAAAAAAAAAAAAAAA
B4: dA59 (spectroscopy) (ssDNA)
DNA: B3 DNA

Tests used:
Hfq = Hfq (Escherichia coli, UniProt P0A6X3 1-102); assay: fluorescence anisotropy; Anisotropy: buffer not given in material (as Geinguenaud 2011); pH ~5 stated for DNA complex formation; microscopy: Hfq stock in 50 mM Tris-HCl pH 7.5, 50 mM NH4Cl, 10% glycerol, 1 mM EDTA, exchanged to TE (10 mM Tris-HCl pH 8, 1 mM EDTA); TEM: 10 mM Tris-HCl, 1 mM EDTA, room temperature, 10 min; details: protein: recombinant; chain copies: 6; label: 5'-fluorescein
Hfq-CTR peptide = target: T1, Hfq-CTR peptide; assay: FTIR and SRCD; pH ~5; Anisotropy: buffer not given in material (as Geinguenaud 2011); pH ~5 stated for DNA complex formation; microscopy: Hfq stock in 50 mM Tris-HCl pH 7.5, 50 mM NH4Cl, 10% glycerol, 1 mM EDTA, exchanged to TE (10 mM Tris-HCl pH 8, 1 mM EDTA); TEM: 10 mM Tris-HCl, 1 mM EDTA, room temperature, 10 min

Hfq, sequence (P0A6X3 whole entry): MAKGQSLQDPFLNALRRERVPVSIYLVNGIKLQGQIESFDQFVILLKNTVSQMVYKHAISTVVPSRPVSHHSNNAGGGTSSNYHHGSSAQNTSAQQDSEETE

| Binder | Kd (Hfq) | binding result (Hfq-CTR peptide) |
| --- | --- | --- |
| B1 | 3500 ± 200 nM | – |
| B2 | 183 ± 8 nM | – |
| B3 | 166 ± 16 nM | – |
| B4 | – | binds |
